This assay deals with T1, human CD24 on human cancer cell lines (MCF7, A549, Huh7) (human, UniProt P25063 27-59).
T1 construct: whole, on cells; Endogenous CD24 on cancer cell lines
T1 chain (looked up): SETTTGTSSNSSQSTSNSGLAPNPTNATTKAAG
Briefly: flow cytometry on fixed MCF-7 cells, FITC anti-human IgG.

The results in this text go back to patent EP4790070A1 (Daegu Gyeongbuk Institute of Science and Technology, dated 2026).

B1: anti-CD24 antibody #2 (Fc fusion)
VH: MAQVQLVQSGGGLIQPGGSLRLSCAASGFTVSSNYMSWVRQAPGKGLEWVSVIYSGGSTYYADSVKGRFTISRDNSKNTLYLQMNSLRAEDTAVYYCAREYGDYFDYWGQGTLVTVSSGS
VL: QSALTQPASVSGSPGQSITISCTGTSSDVGGYDHVSWYQQHPGKAPKLMIYEVTKRPSGVSDRFSGSKSGNTASLTISGLQADDEADYYCSSYAGSNSVLFGGGTQLTVLG
notes: also called Candidate 2
Consider B1, for which the binding result was “binds”.

B2: anti-CD24 antibody #1 (Fc fusion)
VH: MAQVQLLESGGGVVQPGRSLRLSCAASGFTFSSYGMHWVRQAPGKGLEWVSGMSGDGLATYYADSVKGRFTISRDNSKNTLYLQMNSLRAEDTAVYYCARDSSSWYGGYYYYYGMDVWGQGTTVTVSSGS
VL: DIQMTQSPSSVSASVGDRVTITCRASQGISSWLAWYQQKPGKAPKLLIYAASSLQSGVPPRFSGSGSGTDFTLTISSLQPEDFATYYCQQSYSTPLTFGGGTKVEIKR
notes: also called Candidate 1; αCD24 antibody (#1)
As for B2, the binding result is “binds”.
